# According to US20240352130A1 (CHILDREN S HOSPITAL OF PHILADELPHIA, published 2024):
# Read-outs that look alike come from different tables or passages of the source.
# Tests used:
# [1] = target: T1, … HLA-A*24:02 complex (human); experiment: bead-based binding, scFv on streptavidin beads, fluorescent pMHC
# T1 construct: also called Unrelated peptide 1
# [2] = target: T2, … HLA-A*24:02 complex (human); experiment: as above
# T2 construct: also called Unrelated peptide 2
# [3] = target: T3, … HLA-A*24:02 complex (human); experiment: as above
# T3 construct: also called Unrelated peptide 3
# [4] = target: T4, … HLA-A*24:02 complex (human); experiment: as above
# T4 construct: also called Unrelated peptide 4
# [5] = target: T5, PHOX2B (43-51) A*24:02 MHC complex (human); experiment: BLI (BLItz), biotinylated scFv on streptavidin sensor, soluble pMHC 200 nM
# T5 construct: also called PHOX2B (43-51) complex; PHOX2B target pMHC
# Procedure: (§1) Binding kinetics. Affinity measurements were performed using a BLItz™ system (ForteBio, USA) and analyzed using the BLItz Pro™ software.
# [6] = target: T1, … HLA-A*24:02 complex; experiment: bead-based steady-state binding assay (FIG. 3A)
# Procedure: (§2) Steady-state binding assay. An equilibrium binding assay to target pMHCs was also established using MyOne Streptavidin C1 Dynabeads. Briefly, 50 micrograms of Streptavidin C1 Dynabeads were incubated with excess biotinylated scFv before being blocked with free biotin and washed in PBS. […] Binding was normalized to beads without scFv and with unrelated control MHC complex.
# [7] = target: T2, … HLA-A*24:02 complex; experiment: bead-based steady-state binding assay (FIG. 3A)
# Procedure: as §2
# [8] = target: T3, … HLA-A*24:02 complex; experiment: bead-based steady-state binding assay (FIG. 3A)
# Procedure: as §2
# [9] = target: T4, … HLA-A*24:02 complex; experiment: bead-based steady-state binding assay (FIG. 3A)
# Procedure: as §2
# [10] = target: T5, PHOX2B (43-51) A*24:02 MHC complex; experiment: BLI (BLItz), biotinylated scFv on a streptavidin sensor, soluble pMHC in solution
# Procedure: as §1
# [11] = target: T5, PHOX2B (43-51) A*24:02 MHC complex; experiment: BLI (BLItz), biotinylated scFv on streptavidin sensor, soluble pMHC 200 nM; remark: listed apart in the source
# Procedure: as §1
# [12] = target: T1, … HLA-A*24:02 complex; experiment: bead-based binding, scFv on streptavidin beads, fluorescent pMHC; remark: listed apart in the source
# [13] = target: T2, … HLA-A*24:02 complex; experiment: as above; remark: listed apart in the source
# [14] = target: T3, … HLA-A*24:02 complex; experiment: as above; remark: listed apart in the source
# [15] = target: T4, … HLA-A*24:02 complex; experiment: as above; remark: listed apart in the source
# [16] = target: T5, PHOX2B (43-51) A*24:02 MHC complex; experiment: BLI (BLItz), biotinylated scFv on streptavidin sensor, soluble pMHC 200 nM; remark: listed apart in the source
# Procedure: as §1
# [17] = target: T1, … HLA-A*24:02 complex; experiment: bead-based binding, scFv on streptavidin beads, fluorescent pMHC; remark: listed apart in the source
# [18] = target: T2, … HLA-A*24:02 complex; experiment: as above; remark: listed apart in the source
# [19] = target: T3, … HLA-A*24:02 complex; experiment: as above; remark: listed apart in the source
# [20] = target: T4, … HLA-A*24:02 complex; experiment: as above; remark: listed apart in the source
# [21] = target: T5, PHOX2B (43-51) A*24:02 MHC complex; experiment: BLI (BLItz), biotinylated scFv on streptavidin sensor, soluble pMHC 200 nM; remark: listed apart in the source
# Procedure: as §1
binder,measurement,setting,value
Clone 1113 (RU-201-1113) scFv (scFv) scFv: SRNGGDGQSVLTQPPSVSAAPGQKVTISCSGSSSNIGNNYVSWYQQLPGTAPKLLIYDNNKRPSGIPDRFSGSKSGTSATLGITGLQTGDEADYYCGTWDHMGRNTVVFGTGTKVTVSSQTGGSGGGGSGGGGSGGGGSEVQLLESGGGLVQPGGSLRLSCAASGFTFSDYAMSWVRQAPGKGLEWVSAISGTGGSTYYADSVKGRFTISRDNSKNTLYLQMNSLRAEDTAVYYCAKEFSVVNSAAFDIWGQGTMVTVSSS,binding result,[1],no binding (tested: 3.5 nM)
same,binding result,[2],no binding (tested: 3.5 nM)
same,binding result,[3],no binding (tested: 3.5 nM)
same,binding result,[4],no binding (tested: 3.5 nM)
same,Kd,[5],9 nM
Clone 10 (RU141-10) scFv (scFv) scFv: SRNGGDGQSVLTQPPSVSVSPGQTASITCSGDSLGNKYACWYQQKPGQSPVLVIYQDSKRPSGIPERFSGSNSGNTATLTISGTQAMDEADYYCQAWDSSRGYTVVFGTGTKVTVSSQTGGSGGGGSGGGGSGGGGSEVQLLESGGGLVQPGGSLRLSCAASGFTFDSYAMSWVRQAPGKGLEWVSAISGYGGSTYYADSVKGRFTISRDNSKNTLYLQMNSLRAEDTAVYYCAKYTYFLDAFDIWGQGTMVTVSSS,binding result,[6],no binding (tested: 3.5 nM pMHC)
same,binding result,[7],no binding (tested: 3.5 nM pMHC)
same,binding result,[8],no binding (tested: 3.5 nM pMHC)
same,binding result,[9],no binding (tested: 3.5 nM pMHC)
same,koff,[10],0.00076 s⁻¹
same,Kd,[11],10 nM
Clone 9 (RU-201-9) scFv (scFv) scFv: SRNGGDGQSVLTQPPSVSVSPGQTASITCSGDSLGYKYACWYQQKPGQSPVLVIYQDSKRPSGIPERFSGSNSGNTATLTISGTQAMDEADYYCQAWDSLGVNTVVFGTGTKVTVSSQTGGSGGGGSGGGGSGGGGSEVQLLESGGGLVQPGGSLRLSCAASGFTFNYYAMSWVRQAPGKGLEWVSAISGYGGSTYYADSVKGRFTISRDNSKNTLYLQMNSLRAEDTAVYYCAKASEAYSAFDIWGQGTMVTVSSS,binding result,[12],no binding (tested: 3.5 nM)
same,binding result,[13],no binding (tested: 3.5 nM)
same,binding result,[14],no binding (tested: 3.5 nM)
same,binding result,[15],no binding (tested: 3.5 nM)
same,Kd,[16],100 nM
Clone 1114 (RU201-1114) scFv (scFv) scFv: SRNGGDGQSVLTQPPSVSVSPGQTASITCSGDKLGDKYACWYQQKPGQSPVLVIYQDSKRPSGIPERFSGSNSGNTATLTISGTQAMDEADYYCQAWDSIGNMTVVFGTGTKVTVSSQTGGSGGGGSGGGGSGGGGSEVQLLESGGGLVQPGGSLRLSCAASGFTFDYYAMSWVRQAPGKGLEWVSAISGYGGSTYYADSVKGRFTISRDNSKNTLYLQMNSLRAEDTAVYYCAKASEYTNAFDIWGQGIMVTVSSS,binding result,[17],no binding (tested: 3.5 nM)
same,binding result,[18],no binding (tested: 3.5 nM)
same,binding result,[19],no binding (tested: 3.5 nM)
same,binding result,[20],no binding (tested: 3.5 nM)
same,Kd,[21],270 nM
